Patent US20030003563, “Method of using a crystal of the N-terminal domain of a signal transducer and activator of transcription” (published 2003)

B1: single M67 site (dsDNA)
DNA 1: GCCGATTTCCCGTAAATCAT
DNA 2: ATGATTTACGGGAAATCGGC
B2: luciferase reporter enhancer with two weak STAT-1 sites (dsDNA)
DNA 1: GATCAGTTCCCGTCAATCATGATCCAGTTCCCGTCAATGATCCCCGGGATC
DNA 2: GATCCCGGGGATCATTGACGGGAACTGGATCATGATTGACGGGAACTGATC

Key:
[1] = target: STAT-1alpha (Tyr-phosphorylated, wild type) (Homo sapiens, UniProt P42224 P42224:2-750); test: EMSA; used to titrate active protein; settings: tags: in vitro Tyr-phosphorylated with EGF-receptor kinase; chain copies: 4 (two dimers on tandem site; stated)
Source text: (§1) Gel shift experiments and determination of tetramer stability were done as described [Vinkemeier et al., EMBO J. 15:5616 (1996)] with an oligonucleotide containing two copies of the STAT recognition element from the c-fos gene [Wagner et al., EMBO J. 9:4477 (1990)] spaced by 10 base pairs (5′-[…]-3′). Both protein preparations (Tyr-phosphorylated wild type STAT-1α and W37A mutant) were titrated in gel shift experiments with an oligonucleotide containing a single M67 site (5′-[…]-3′) [Wagner et al., EMBO J. 9:4477 (1990)] to assure similar loading of active protein. […] The time necessary to reach equilibrium was assessed by EMSA [(Stone et al., in Jost, J. P. & Saluz, H. P. (eds.) A Laboratory Guide to In Vitro Studies of Protein-DNA Interactions BioMethods, vol.5:163-195 (1991)]. For all DNA fragments tested, equilibrium turned out to be fully established at the earliest timepoint that can be determined by this technique (30 sec). Therefore incubation periods of 5-15 minutes were chosen. Reaction products were loaded onto a 4% polyacrylamide gel (1.5 mm thick) containing 0.25× Tris-borate-EDTA which had been pre-run at 20V/cm for 2 hours at 4° C. Electrophoresis was continued for 60 minutes at 4° C. Gels were dried and exposed to X-ray film and quantitated by a Molecular Dynamics Phospholmager.

[2] = target: STAT-1alpha W37A (Tyr-phosphorylated) (Homo sapiens, UniProt P42224 P42224:2-750, W37A); test: EMSA; used to titrate active protein; settings: tags: C-terminal 6xHis; baculovirus insect cells; chain copies: 2 (dimer; stated)
Source text: as §1

[3] = target: STAT-1alpha wild type (transfected, U3A cells) (Homo sapiens, UniProt P42224 P42224:2-750); test: cell_activity; IFN-gamma 5 ng/ml, 10 h, luciferase in U3A cells; settings: tags: pcDNA3 expression
Description: FIG. 4B show the effect of STAT-1 W37A mutation on interferon-γ (IFN-γ) stimulated gene activation in vivo. U3A cells that are lacking STAT-1 [Miller et al., EMBO J. 12:4221 (1993)] were transfected with expression clones containing either wild type or mutant STAT-1 (see Methods of the EXAMPLE, below) along with a luciferase reporter containing a tandem STAT binding site as an enhancer. After stimulation with IFN-γ for 10 hours, luciferase expression was determined spectroscopically (represented as bars). Cells transfected with the wild type protein show an about 2-fold increase in luciferase expression. […] Each bar represents ten individual parallel experiments. Error bars denote standard deviation from the mean.
Transient transfections were performed on six well plates with 50% confluent U3A cells using the calcium phosphate method as instructed by the manufacturer (Stratagene) with the following modifications. Transfection reactions contained per well 4.5 μg of either wild type STAT-1α or the W37A mutant in plasmid pcDNA3 (Invitrogen), 4 μg luciferase reporter plasmid pLuc, and 0.4 μg β-galactosidase reporter plasmid (Stratagene).
The luciferase reporter contained in its BamH1 site as an enhancer element two tandemly arranged “weak” STAT-1 binding sites (5′-[…]-3′, binding sites underlined) from the human c-fos promoter. […]

Sequence of STAT-1alpha W37A (Tyr-phosphorylated) (P42224 2-750 W37A, one chain of several): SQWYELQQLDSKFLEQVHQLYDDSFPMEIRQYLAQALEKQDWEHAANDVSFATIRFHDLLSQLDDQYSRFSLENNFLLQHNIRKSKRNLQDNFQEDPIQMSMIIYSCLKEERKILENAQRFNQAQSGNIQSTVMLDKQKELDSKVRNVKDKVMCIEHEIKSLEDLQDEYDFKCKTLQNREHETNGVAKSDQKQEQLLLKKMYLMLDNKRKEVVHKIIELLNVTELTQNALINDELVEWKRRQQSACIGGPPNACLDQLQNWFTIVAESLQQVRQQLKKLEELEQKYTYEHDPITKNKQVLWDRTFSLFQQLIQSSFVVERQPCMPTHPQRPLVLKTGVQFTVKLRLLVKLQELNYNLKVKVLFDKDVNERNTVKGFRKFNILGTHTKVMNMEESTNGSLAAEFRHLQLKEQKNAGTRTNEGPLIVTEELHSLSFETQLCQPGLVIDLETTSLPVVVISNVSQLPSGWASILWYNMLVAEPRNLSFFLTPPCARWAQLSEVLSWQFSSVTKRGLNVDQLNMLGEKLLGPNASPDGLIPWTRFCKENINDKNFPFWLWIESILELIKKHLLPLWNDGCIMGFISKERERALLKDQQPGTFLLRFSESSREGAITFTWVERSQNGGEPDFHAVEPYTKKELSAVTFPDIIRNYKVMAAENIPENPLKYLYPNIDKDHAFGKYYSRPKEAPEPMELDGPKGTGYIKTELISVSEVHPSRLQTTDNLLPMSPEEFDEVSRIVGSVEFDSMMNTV
Sequence of STAT-1alpha wild type (transfected, U3A cells) (P42224 2-750, one chain of several): as the sequence (P42224 2-750 W37A, one chain of several) above, with A36W counted along it
Sequence of STAT-1alpha (Tyr-phosphorylated, wild type) (P42224 2-750, one chain of several): as the sequence (P42224 2-750 W37A, one chain of several) above, with A36W counted along it

Row | Binder | binding result [1] | binding result [2] | activity [3] [fold induction]
1 | B1 | binds | binds | 
2 | B2 |  |  | ~2
